The series in a line: yeast display, Sf9 membrane polyspecificity reagent, FACS + sequencing; frameworks hold sequencing errors. The procedure, abridged: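 In a synthetic yeast display library (Saccharomyces cerevisiae BJ5465), nanobody expression was induced with galactose for 36–48 hours. FACS gates were set low and high (top ~1%) using anti-HA fluorescence for expression and streptavidin fluorescence for binding of the Sf9 membrane reagent. Each polyreactivity label is drawn from the gate of origin.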
With “QVQLVESGGGLVQAGGSLRLSCAASGFTYGSNAMGWYRQAPGKERELVATISRRGGRTYYADSVKGRFTISRDNAKNTVYLQMNSLKPEDTAVYYCAADRSRPGYDYWGQGTQVTVSS”, the “polyreactivity (PSR sort gate)” value is “high polyreactivity”.
The same measure for “QVQLVESGGGLVQAGGSLRLSCAASGLIFSGYTMGWYRQAPGKERELVAAISKSGGNTYYADSVTGRFTISRDNAKNTVYLQMNSLKPEDTAVYYCNRDVTYYRGYDYWGQGTQVTVSS”: “high polyreactivity”; for “QVQLVESGGGLVQAGGSLRLSCAASGFIYDYAMGWYRQAPGKEREFVARINWSGGSTYYADSVKGRFTISRDNAKNTVYLQMNSLKPEDTAVFYCATSGWAWRTSNPYEYWGQGTQVTVSS”: “low polyreactivity”; for “QVQLVESGGGLVQAGGSLRLSCAASGFIFYKNAKGWYRQAPGKERELVAAISQIGGTTYYADSVKGRFTISRDNAKNTVYVQMNSLKPEDTAVYYCAASRRVQSDYWGQGTQVTVSS”: “high polyreactivity”.
With “QVQLVESGGGVVQAGGSLRLSCAASGFIFHQNAMGWYRPAPGKERELVAAITRSGTSTYYADSVKGRFTISRDYAKNTVYLQMYSLKPEDTAVYYCANDPVRVGRFGYEYWGQGTQVTVSS” the entry was “low polyreactivity”; with “QVQLVESGGGLVQAGGSLRLSCAASGLTISTYAMGWYIQAPGKDRELVATITYSGSSTYADSVKGRFTISRDNAKNTVYLQMNSLKPEDTAVYYCAAFTYHGNPSEYYPDTVGFYYWGQGTQVSVSS”, “low polyreactivity”; with “QVQLVESGGGLVQAGGSLRLSCAASGSTFYTNAMGWYTQAPGKERELVAAISGSGGSTYYADSVKGRFTISRDNAKNTVYLQMNSLKPEDTAVYYCAARSRYYDTRFDYWGQGTQVTVSS”, “low polyreactivity”.
With “QVQLVESGGGLVQAGGSLRLSCAASGRIFDVNAMGWYRQAPGKERELVAAITYSDGSTYYADSVKGRFTISRDNAKNTVYLQMNSLKPEDTAVYYCAATQEPVTPQPYGYWGQGTQVTVSS”, the “polyreactivity (PSR sort gate)” value is on record as “low polyreactivity”.
On to “HVQLVESVGGLVQAGGSLRLRCAASGSIFYRNAMGWYRKAPGKERELVAAISSDGSTNYADSVKGRFTISRDNAKNSVYFQMNSLKPEDTAVYYCAAPWTQILDYWGQGTQVTVSS”, for which the “polyreactivity (PSR sort gate)” value is reported as “low polyreactivity”.
The same measure for “QVQLVESGGGLVQAGASLRLSCAPSASIFSYNAMGWYSQAPGKERELVAAIDWSGGSTYYADSVKGRFTISRDNAKNTVYLQMNSLKPEDTEVYYCNAVGVFYYSYHYHQSDYWGQGTQVTVSS”: “low polyreactivity”; for “QFQLVESGGGLVQAGGSLRLSCAASGRTFYQYTMGWYRQAPGKERELVAAITTSTGNTYYADSVKGRFTISRDNAKNTVYLQLNSLKPEDTAVYYCAAEPPTYKLLDYWGQGTQVTVSS”: “low polyreactivity”.
The same measure for “QVQLVESGGGLVQAGGSLRLSCAASGIIFGDNAMGWYRQAPGKERELVAAIDSGGSTYYADSVKGRFTISRDNAKTTVYCPMNSLKPEDTAVYYCNAVTAFGYSYGGWDYDQYNYWGQGTQVTVSS”: “low polyreactivity”; for “QVQLVESGGGLVQAGGSLRLSCAASGRIFRHNTMGWYRQAPGKERELVAGITASGGDTYYADSVKGRFTISRDNAKNTVYLDMNSLKPEDTAVYYCATSQYGYRSWPGLYYWGQGTQVTVSS”: “low polyreactivity”; for “QVQLVESGGGLVQAGGSLRLSCAASGRIFYSNAMGWYRPAPGKERELVAGITISGGSTYYADSVKGRFTISRDYAKNTVSLQMNSLKPEDTAVYYCNARYLRRGDYGGQGTQVTVSS”: “low polyreactivity”.
With “QVQLVESGGGLVQAGGSLRLSCAASGGIFGKYAMGWYRQAPGKERELVAAITSSGGSTFYADSVKGRFTNSRDNAKNTVYLQMNSLKPEDTAVYYCAARFSSYVRRYYYWGQGTQVTVSS” the entry was “high polyreactivity”; with “QVQLVESGGGLVQAGGSLRLSCAASGRIFPVYAMGWYRQAPGKEREFVAAIRGTGTSTYYADSVKGRFTISRDNAKNTVYLQMNSLKPEDTAVYYCAASAGYAYNYWGQGTQVTVSS”, “low polyreactivity”.
Consider “QVQLQESGGGLVQACSSLRLSCAASGTIFYYIMGWYRQAPGKERELVATIDLGGGTNYADSVKGRFTISRDDAKNTVYLQMSSLKPEDTAEYYCAVYLYRLTFFYYWGQGNQVTVSS”, for which the “polyreactivity (PSR sort gate)” value was “high polyreactivity”.
With “QVQLVESGGGLVQAGGSLRLSCDASGIIFPYYAMGWYRQAPGKERELVAGISSSGGITYADSVKGRFTISRDNAKNTVYLQMNSLNPEDTAVYYCNAEYQWLEYDYWGQGTQVTVSS” the entry was “low polyreactivity”; with “QVQIVESGGGLVQAGGSLRLSCAASGYIFYPYTMGWYRQAPVKERQLVAAITWSGSTYYADSVKGRFTISRDNAKNTVYLQMNSLKPEDTAVYYCARESDWWREFPYDYWGHGTQVTVSS”, “low polyreactivity”.
The same measure for “QVQLVESGGGLVQAGGSLRLSCAASGSIFSWYTMGWYRQAPGKERELVAAISRRGGSTYYADSVKGRFTISRDNAKNTVFLQMNSLKPEDNAVYYCAAAHPATRYDYWGQGTQVTVSS”: “high polyreactivity”.

The values are drawn from the nanobody polyreactivity screen of Harvey et al. (2022).
